Target: MtbClpC1^F444S-E288A-E626A (Mycobacterium tuberculosis) (UniProt P9WPC9)
Experiment: cryo-EM structure

Question: With “MtbClpC1^F444S-E288A-E626A (from UniProt P9WPC9 1-848) (enzyme)” as the substance, how does the stoichiometry N read?
Answer: The stoichiometry N was 6.

— PMC11992174
